Experimental data reported in article PMC11839083 (bioRxiv, 2025).

Target: the molecule itself
Assay: cryo-EM structure

B1: C1-GS4 (Aae NtrC1 residues 121–387 with GSGSLGQYL at the C-terminus) (other)
chain: LRKENELLRREKDLKEEEYVFESPKMKEILEKIKKISCAECPVLITGESGVGKEVVARLIHKLSDRSKEPFVALNVASIPRDIFEAELFGYEKGAFTGAVSSKEGFFELADGGTLFLDEIGELSLEAQAKLLRVIESGKFYRLGGRKEIEVNVRILAATNRNIKELVKEGKFREDLYYRLGVIEIEIPPLRERKEDIIPLANHFLKKFSRKYAKEVEGFTKSAQELLLSYPWYGNVRELKNVIERAVLFSEGKFIDRGELSCLVNSKGSGSLGQYL
- binding result: binds
